We go through seven molecules from US5874308A, “Compositions and methods for modulating cell proliferation using growth factor-polysaccharide binding fusion proteins” (priority 1996, dated 1999).

The target in one assay is T1, N1 (CBDN1) (Cellulomonas fimi, UniProt P14090).
T1 construct: leader (signal) peptide of C. fimi exoglucanase Cex (N); made in house; host or cells: E. coli JM101 (pTugKN1), purified from culture supernatant
T1 sequence (P14090 33-184): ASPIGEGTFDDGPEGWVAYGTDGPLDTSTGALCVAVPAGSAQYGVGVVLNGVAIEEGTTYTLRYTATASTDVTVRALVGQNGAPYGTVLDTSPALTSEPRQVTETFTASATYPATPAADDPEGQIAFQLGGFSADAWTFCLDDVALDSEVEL
The experiment in a line: N1 binding constants by NMR. To be noted: 35° C.; read-out: NMR Ka (converted).

Another assay addresses T2, CBDN1 (Cellulomonas fimi, UniProt P14090).
T2 construct: leader (signal) peptide of C. fimi exoglucanase Cex (N); made in house; host or cells: E. coli JM101 (pTugKN1), purified from culture supernatant
T2 sequence (P14090 33-184): T1 sequence (P14090 33-184)
As to the kind of experiment: Isothermal titration microcalorimetry of oligosaccharide binding to CBDN1. To be noted: 35° C.; for Kd: 50-mM PBS, pH 7, read-out: Isothermal Titration Microcalorimetry Ka (converted). The source says:
Microcalorimetry was used to measure binding thermodynamics for CBDN1 to a wide range of water-soluble oligosaccharides with the aim of identifying a set of suitable ligands for the affinity partition system. […] For both oligosaccharides, CBDN1 binding is as tight or even tighter than nearly all PEG-based affinity ligands (e.g., Cibacron blue-PEG, Procion red-PEG, dinitrophenyl-PEG, diacetic acid-PEG) currently in use in affinity partition systems.
For orientation: In ITC the heat of successive injections is recorded.

Assay [1] deals with SLF dependent bone marrow cell line B6SUtA1. The experiment in a line: MTT proliferation assay of SLF-CBD in solution or bound to BMCC. The conditions noted are these: for effect of presence of BMCC on activity: protein concentration varied; for distribution of activity between BMCC and supernatant: bound to 1 μg/ml BMCC, matrix removed by centrifugation and resuspended; for potency when immobilized on cellulose vs in solution (maximum proliferative response, specific activity): immobilized on cellulose (BMCC); for proliferative activity in solution (MTT), compared with control SLF: non-immobilized, absence of an immobilization matrix; for distribution of activity between BMCC and supernatant after Factor Xa cleavage: 1 μg/ml BMCC, Factor Xa added. Format: cell-based. As to the method: Samples of purified SLF-CBD were diluted in H-SFM. […] In experiments where BMCC was used, 50 μl of a BMCC suspension in H-SFM was added to each well, and in experiments where no BMCC was used 50 μl of H-SFM alone was added.
Statistical analysis of data was carried out with regression curve fitting in two iterations using non-linear regression analysis from the GraFit version 3.0 statistical analysis program (Erithacus Software Ltd., Staines, U.K.).
For orientation: Tetrazolium dyes change colour on reduction, which living cells bring about.

A short description of assay [2]: Binding of SLF-CBD to Avicel cellulose during purification. The conditions noted are these: affinity chromatography on Avicel. As to the method: The plasmid pSLF/CBD 1.0 was transformed into E. coli JM101 (Yanisch-Perronet al. (1985) Gene 33: 103-119) for expression. Several colonies were scraped from a plate and used to inoculate a 5 ml test tube of Terrific Broth (Tartof and Hobbs, Bethesda Res. Lab. Focus 9: 12) containing […] kanamycin. This tube was incubated with shaking at 37° C. for four hours and then used to inoculate four flasks containing 500 ml of the same medium at 0.2% volume. These flasks were then incubated at 37° C. with shaking at 250 rpm until a cell culture optical density (OD550) […]. The cells were then induced by the addition of 0.1 mM IPTG and shifted to 30° C. with shaking at 100 rpm for a further eight hours. Cells were then harvested and the periplasmic proteins isolated by osmotic shock (Neu and Heppel (1965) J. Biol. Chem. 240: 3685-3692). Five mg of Avicel microcrystalline cellulose (FMC International, Cork, Ireland) was added to either 10 ml of culture supernatant or 1 ml of periplasmic extract and then removed by centrifugation. SDS-PAGE loading buffer was than added to the Avicel, which was then boiled for two minutes and loaded directly onto a gel for SDS-PAGE analysis (Laemmli, supra.) (FIG. 8A).

Another assay has as its system B6SUtA cells. As to the kind of experiment: Activity of SLF-CBD bound to regenerated cellulose coated microtiter plates (MTT). Type of assay: cell-based. As to the method: A 1% (w/v) solution of cellulose acetate was prepared by adding one gram of cellulose acetate (Kodak Inc.) to 99 ml of acetic acid. One hundred μl of this solution was added to each well of the standard 96 well tissue culture plates used above, and the acetic acid allowed to evaporate. One hundred μl of 50 mM NaOH was then added to each well and left for 20 minutes to regenerate a cellulose surface. The NaOH was then poured out, and the wells rinsed three times with PBS. Three hundred μl of 70% (v/v) ethanol was then added to each well, the plate lid replaced, and the ethanol allowed to evaporate as a sterilization step.
Activity tests were carried out as previously described except that a cellulose acetate derived surface was used to immobilize SLF/CBD instead of BMCC. Twenty μl protein test samples were put into cellulose coated wells. […] Activity was measured after 48 h of culture using the […] with data points collected in quadruplicate. […]
Non-tagged SLF was used as a control. In one set of control experiments, SLF was added to cellulose coated tissue culture wells as before, the surface was seeded with fresh cells three times, and the proliferation measured. […] These surfaces were seeded with cells three times and the activity measured.

Where [3] appears, read: BMCC fixed at 1 μg/ml or 14 μg/ml.

“Also recorded” adds a separate entry of the source.

As for `OC[C@H]1O[C@@H](O[C@H]2[C@H](O)[C@@H](O)[C@H](O[C@H]3[C@H](O)[C@@H](O)[C@H](O[C@H]4[C@H](O)[C@@H](O)[C@H](O[C@H]5[C@H](O)[C@@H](O)[C@H](O[C@H]6[C@H](O)[C@@H](O)C(O)O[C@@H]6CO)O[C@@H]5CO)O[C@@H]4CO)O[C@@H]3CO)O[C@@H]2CO)[C@H](O)[C@@H](O)[C@@H]1O` (stereo partly shown) [Cellohexaose], the Kd on N1 (CBDN1) was 19.6 µM. In addition, at CBDN1, the “Isothermal Titration Microcalorimetry -TΔS°” value was 0.79 ± 0.1 kcal/mol, the “Isothermal Titration Microcalorimetry ΔH°” value is reported as -6.9 ± 0.2 kcal/mol and the Kd was 0.0397 mM.
The matching figures for `OC[C@H]1O[C@@H](O[C@H]2[C@H](O)[C@@H](O)[C@H](O[C@H]3[C@H](O)[C@@H](O)[C@H](O[C@H]4[C@H](O)[C@@H](O)[C@H](O[C@H]5[C@H](O)[C@@H](O)C(O)O[C@@H]5CO)O[C@@H]4CO)O[C@@H]3CO)O[C@@H]2CO)[C@H](O)[C@@H](O)[C@@H]1O` (stereo partly shown) [Cellopentaose]: 29.4 µM, 0.86 ± 0.1 kcal/mol, -6.8 ± 0.2 kcal/mol and 0.0559 mM.
On the same counts, the results for `OC[C@H]1O[C@@H](O[C@H]2[C@H](O)[C@@H](O)[C@H](O[C@H]3[C@H](O)[C@@H](O)[C@H](O[C@H]4[C@H](O)[C@@H](O)C(O)O[C@@H]4CO)O[C@@H]3CO)O[C@@H]2CO)[C@H](O)[C@@H](O)[C@@H]1O` (stereo partly shown) [Cellotetraose] are 238 µM, 1.4 ± 0.1 kcal/mol, -6.4 ± 0.2 kcal/mol and 0.244 mM.
`OC[C@H]1O[C@@H](O[C@H]2[C@H](O)[C@@H](O)[C@H](O[C@H]3[C@H](O)[C@@H](O)C(O)O[C@@H]3CO)O[C@@H]2CO)[C@H](O)[C@@H](O)[C@@H]1O` (stereo partly shown) [Cellotriose]: the Kd on N1 (CBDN1) was 5560 µM.

B1: control SLF: recombinant extracellular domain of murine steel factor without affinity tag (R&D systems), positive control (protein)
chain: KEICGNPVTDNVKDITKLVANLPNDYMITLNYVAGMDVLPSHCWLRDMVIQLSLSLTTLLDKFSNISEGLSNYSIIDKLGKIVDDLVLCMEENAPKNIKESPKRPETRSFTPEEFFSIFNRSIDAFKDFMVASDTSDCVLSSTLGPEKDSRVSVTKPFMLPPVAASSLRNDSSSSNRKAAKAPEDSGLQ
Consider B1, for which the “effect of presence of BMCC on activity” value in assay [1] (setting [3]) is “no effect”. Also, in assay [1], the “distribution of activity between BMCC and supernatant” value was “most of the activity was in the supernatant”; the “potency when immobilized on cellulose vs in solution (maximum proliferative response, specific activity)” value is recorded as “not observed”. Also, the “distribution of activity between BMCC and supernatant” value in assay [1] (listed as non-tagged SLF control) is “most of the activity was associated with the supematant”.

B2: CBD: recombinant cellulose binding domain of Cex, negative control (protein)
chain: SGPAGCQVLWGVNQWNTGFTANVTVKNTSSAPVDGWTLTFSFPSGQQVTQAWSSTVTQSGSAVTVRNAPWNGSIPAGGTAQFGFNGSHTGTNAAPTAFSLNGTPCTVG
Take B2: the “proliferative activity in solution (MTT), compared with control SLF” value in assay [1] is on record as “did not stimulate the proliferation”.

B3: SLF-CBD: fusion protein: extracellular domain of murine steel factor linked to the cellulose binding domain of Cellulomonas fimi exoglucanase Cex (protein)
chain: KEICGNPVTDNVKDITKLVANLPNDYMITLNYVAGMDVLPSHCWLRDMVIQLSLSLTTLLDKFSNISEGLSNYSIIDKLGKIVDDLVLCMEENAPKNIKESPKRPETRSFTPEEFFSIFNRSIDAFKDFMVASDTSDCVLSSTLGPEKDSRVSVTKPFMLPPVAASSLRNDSSSSNRKAAKAPEDSGLQPTPTPTTPTPTPTTPTPTPTSGPAGCQVLWGVNQWNTGFTANVTVKNTSSAPVDGWTLTFSFPSGQQVTQAWSSTVTQSGSAVTVRNAPWNGSIPAGGTAQFGFNGSHTGTNAAPTAFSLNGTPCTVG
Regarding B3, the “binding of the fusion protein to cellulose” value in assay [2] is “strong and difficult to reverse”. Also, the “fraction bound to reconstituted cellulose surface (activity on plate vs supernatant)” value in the assay with B6SUtA cells (cellulose coated microtiter plate) is on record as “essentially all”. Also, the “proliferative activity after repeated use of the same surface” value in the assay with B6SUtA cells (three consecutive rounds of 48 h cell culture) is “no loss in proliferative activity; also recorded: no loss of proliferative activity; also recorded: without loss of growth-stimulating activity”. In addition, in assay [1] (0.6 nM SLF-CBD, in solution), the “neutralization of activity by anti-SLF neutralizing polyclonal antibodies” value is listed as “neutralized”. Besides, in assay [1], the “distribution of activity between BMCC and supernatant after Factor Xa cleavage” value is listed as “the bulk of the activity was found in the supernatant”; the “distribution of activity between BMCC and supernatant” value is “the bulk of the activity was associated with the BMCC; also recorded: most of the activity was associated with the BMCC particles”; the “potency when immobilized on cellulose vs in solution (maximum proliferative response, specific activity)” value was “significantly more potent; also recorded: to a greater extent than non-immobilized steel factor”; the “proliferative activity in solution (MTT), compared with control SLF” value is “similar”. Further, the “distribution of activity between BMCC and supernatant after Factor Xa cleavage” value in assay [1] (listed as SLF/CBD) is reported as “the activity was no longer associated with the BMCC”. Further, the “SLF-CBD concentration at maximum stimulatory activity” value in assay [1] (BMCC constant at 1 μg/ml (1.22 cm^2/ml)) is “about 2000 pM”. For the same molecule, in assay [1] (setting [3]), the “ED50 (protein concentration for half maximal response) in presence vs absence of BMCC” value is “decrease”, the “total cell proliferation in presence vs absence of BMCC” value is “increase” and the “effect of presence of BMCC on activity” value is given as “clearly more active in the presence of BMCC”. Moreover, in assay [1] (SLF-CBD held constant at 1500 pM, BMCC varied), the “BMCC concentration at maximum activity” value turned out to be 44 µg/mL. Besides, in assay [1] (soluble form), the “ED50 of soluble fusion protein vs control protein” value was “identical” and the “maximum cell density generated vs control protein” value is on record as “not quite as great”.
